{
  "source": "patent US20240301043A1",
  "about": "(Q32 BIO, published 2024)",
  "binders": {"B1": {"name": "Exemplary anti-C3d construct 55 (antibody, mouse IgG1, kappa, V domains shown)", "VH": "EVQLQQSGPVLVKPGASVKMSCKASGYTFTAYYMNWVRQSHGKSLEWIGVINPYNGGTSYNQKFKGKATLTVDKSSSTAYMELNSLTSEDSAVYYCSSPYWGQGTSVTVSS", "VL": "not shown", "notes": "also called Exemplary construct 55"}, "B2": {"name": "Exemplary anti-C3d construct 56 (Fab) (Fab, V domains shown)", "VH": "B1 VH", "VL": "not shown", "notes": "also called Exemplary construct 56"}, "B3": {"name": "Exemplary anti-C3d construct 34 (antibody, mouse IgG1, kappa, V domains shown)", "VH": "B1 VH", "VL": "not shown", "notes": "muHC2 murine IgG1 heavy chain and muLC2 murine kappa light chain; also called Exemplary construct 34"}, "B4": {"name": "Exemplary anti-C3d construct 74 (antibody, V domains shown)", "VH": "QVQLVQSGAEVKKPGASVKVSCKASGYTFTNYYINWVRQAPGQGLEWIGVINPYNGGTSYNQKFKGRATLTVDTSTSTAYMELSSLRSEDTAVYFCSSPYWGQGTLVTVSS", "VL": "DVVMTQSPLSLPVTLGQPASISCKSSQSLLDSDGKTYLNWFQQRPGQSPRRLIYLVSKLDSGVPDRFSGSGSGTDFTLKISRVEAEDVGVYYCWQGTHFPRTFGGGTKVEIK", "notes": "Humanized 3d8b VH4 / VK3; also called Exemplary construct 74"}, "B5": {"name": "Exemplary anti-C3d construct 75 (antibody, V domains shown)", "VH": "B4 VH with I48M, A68V, L70M", "VL": "B4 VL", "notes": "Humanized 3d8b VH5 / VK3; also called Exemplary construct 75"}, "B6": {"name": "Exemplary anti-C3d construct 76 (antibody, V domains shown)", "VH": "B4 VH with N55H", "VL": "B4 VL", "notes": "Humanized 3d8b VH4 N54H / VK3; also called Exemplary construct 76"}, "B7": {"name": "Exemplary anti-C3d construct 77 (antibody, V domains shown)", "VH": "B4 VH with I48M, N55H, A68V, L70M", "VL": "B4 VL", "notes": "Humanized 3d8b VH5 N54H / VK3; also called Exemplary construct 77"}, "B8": {"name": "Exemplary anti-C3d construct 78 (antibody, V domains shown)", "VH": "B4 VH with N55S", "VL": "B4 VL", "notes": "Humanized 3d8b VH4 N54S / VK3; also called Exemplary construct 78"}, "B9": {"name": "Exemplary anti-C3d construct 79 (antibody, V domains shown)", "VH": "B4 VH with I48M, N55S, A68V, L70M", "VL": "B4 VL", "notes": "Humanized 3d8b VH5 N54S / VK3; also called Exemplary construct 79"}, "B10": {"name": "Exemplary anti-C3d construct 86 (antibody, human IgG4 S228P, kappa)", "heavy": "not shown", "light": "DVVMTQSPLSLPVTLGQPASISCKSSQSLLDSDGKTYLNWFQQRPGQSPRRLIYLVSKLDSGVPDRFSGSGSGTDFTLKISRVEAEDVGVYYCWQGTHFPRTFGGGTKVEIKRTVAAPSVFIFPPSDEQLKSGTASVVCLLNNFYPREAKVQWKVDNALQSGNSQESVTEQDSKDSTYSLSSTLTLSKADYEKHKVYACEVTHQGLSSPVTKSFNRGEC", "notes": "HC1 (VH5) humanized IgG4 S228P/L235E; LC1 (Vk3) humanized kappa; also called Exemplary construct 86"}, "B11": {"name": "Exemplary anti-C3d construct 93 (antibody, human IgG4 S228P, kappa, V domains shown)", "VH": "B4 VH with I48M, N55S, A68V, L70M", "VL": "DVVMTQSPLSLPVTLGQPASISCKSSQSLLDSDGKTYLNWFQQRPGQSPRRLIYLVSKLDSGVPDRFSGSGSGTDFTLKISRVEAEDVGVYYCWQGTHFPRTFGGGTKVEIKR", "notes": "also called Exemplary construct 93"}, "B12": {"name": "Exemplary anti-C3d construct 87 (antibody, human IgG4 S228P, kappa)", "heavy": "not shown", "light": "B10 light", "notes": "also called Exemplary construct 87"}, "B13": {"name": "Exemplary Fusion Construct 99 (other)", "heavy": "not shown", "light": "B10 light", "notes": "Order chain, linker, modulator follows claim 321"}},
  "note": "Substitutions are numbered along the chain they refer to. Names may count otherwise.",
  "data": [
    {"molecular_target": "T1, human C3d (human, UniProt P01024 1002-1303)", "T1 construct": "domain: C3d; also called C3d antigen", "T1 sequence (P01024 1002-1303 limits assumed)": "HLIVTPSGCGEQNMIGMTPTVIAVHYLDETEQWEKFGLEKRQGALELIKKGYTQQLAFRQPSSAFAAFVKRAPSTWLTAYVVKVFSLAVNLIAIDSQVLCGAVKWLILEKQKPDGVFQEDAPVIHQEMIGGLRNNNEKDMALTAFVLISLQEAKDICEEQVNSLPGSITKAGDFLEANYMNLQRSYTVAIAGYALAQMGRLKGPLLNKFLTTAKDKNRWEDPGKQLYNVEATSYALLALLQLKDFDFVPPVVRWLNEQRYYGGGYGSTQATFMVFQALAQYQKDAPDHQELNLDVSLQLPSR", "assay": "ELISA, human C3d coated on plate", "units": {"EC50": "nM"}, "values": [
      {"binder": "B1", "EC50": 0.24},
      {"binder": "B2", "EC50": 0.55},
      {"binder": "B3", "EC50": 0.32}
    ]},
    {"molecular_target": "T1, human C3d", "assay": "ELISA, human C3d coated on plate", "remark": "another data set of the same source", "units": {"EC50": "nM"}, "values": [
      {"binder": "B4", "EC50": 0.017},
      {"binder": "B5", "EC50": 0.029},
      {"binder": "B6", "EC50": 0.018},
      {"binder": "B7", "EC50": 0.011},
      {"binder": "B8", "EC50": 0.018},
      {"binder": "B9", "EC50": 0.02},
      {"binder": "B10", "EC50": 0.03}
    ]},
    {"molecular_target": "T1, human C3d", "assay": "ELISA, human C3d coated on plate", "remark": "another data set of the same source", "units": {"EC50": "nM"}, "values": [
      {"binder": "B11", "EC50": 0.02},
      {"binder": "B10", "EC50": 0.03},
      {"binder": "B12", "EC50": 0.02},
      {"binder": "B13", "EC50": 1.54}
    ]},
    {"molecular_target": "T1, human C3d", "assay": "SPR (Biacore 3000), human C3d amine-coupled to CM5 chip, construct as analyte", "units": {"Kd": "nM"}, "values": [
      {"binder": "B2", "Kd": 0.91},
      {"binder": "B3", "Kd": 0.888},
      {"binder": "B4", "Kd": 1.34},
      {"binder": "B5", "Kd": 1.63},
      {"binder": "B11", "Kd": 10.2},
      {"binder": "B10", "Kd": 14.7},
      {"binder": "B12", "Kd": 7.57}
    ]}
  ]
}
